# Patent US20210330742A1 (RUN X, published 2021)
# Molecular target: CDK4 (UniProt P11802 2-303)
# Assay: co-IP and immunoblot, time course after serum stimulation
# Experimental: FIG. 2a is a diagram confirming that E2F1 was combined with RUNX3 by measuring the time-dependent formation of BRD2-RUNX3, E2F1-RUNX3, CDK4-RUNX3, Cyclin D1-RUNX3, HDAC4-RUNX3, p16INK4a-CDK4, p21-CDK4, Cyclin D1-CDK4 and HDAC4-CDK4 complexes by immunoprecipitation (IP) and immunoblotting (IB), and the time-dependent phosphorylation of pRB (at Ser-795) and ERK1/2 by immunoblotting (IB).
# Transient transfection was performed in all cell lines using lipofectamine plus reagent and lipofectamine (Invitrogen). Cell lysates were incubated with an appropriate monoclonal or polyclonal antibody (2 μg of antibody/500 μg of lysate sample) at 4° C. for 3 hours, followed by incubation with protein G-Sepharose beads (Amersham Pharmacia Biotech, Piscataway, NJ, USA). For the detection of endogenous proteins at 4° C. for 1 hour, the lysate was incubated with an appropriate monoclonal or polyclonal antibody (1:1000-1:3000) at 4° C. for 6 to 12 hours, and then protein G-Sepharose beads (Amersham Pharmacia Biotech) were […] at 4° C. for 3 hours. The immune precipitate was […] on an SDS-polyacrylamide gel electrophoresis (SDS-PAGE) gel and transferred to a PVDF membrane (Millipore, Billerica, Mass., USA). […]
# Sequence of CDK4 (P11802 2-303 limits assumed): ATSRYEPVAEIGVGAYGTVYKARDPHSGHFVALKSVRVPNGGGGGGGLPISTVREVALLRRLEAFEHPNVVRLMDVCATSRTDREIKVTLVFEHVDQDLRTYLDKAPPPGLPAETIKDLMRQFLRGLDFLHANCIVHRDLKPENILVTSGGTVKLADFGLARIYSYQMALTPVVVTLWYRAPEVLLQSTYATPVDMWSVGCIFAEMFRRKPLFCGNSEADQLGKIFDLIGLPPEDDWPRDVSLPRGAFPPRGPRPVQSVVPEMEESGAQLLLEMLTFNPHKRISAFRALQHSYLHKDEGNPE
binder,measurement,value
"p16INK4a (other, UniProt P42771 1-156, looked up) MEPAAGSSMEPSADWLATAAARGRVEEVRALLEAGALPNAPNSYGRRPIQVMMMGSARVAELLLLHGAEPNCADPATLTRPVHDAAREGFLDTLVVLHRAGARLDVRDAWGRLPVDLAEELGHRDVARYLRAAAGGTRGSNHARIDAAEGPSDIPD",binding result,binds
